From US20200308281A1 (KITE PHARMA, published 2020)

Target: T1, alpha chain of the constant region of the murine T cell receptor (TCR) (murine, UniProt P01849 1-136)
T1 construct: Endogenous protein in mouse spleen tissue; The variable parts and the beta chains are those of the tissue's T cells and are not defined; also called mouse spleen TCR
T1 TCR alpha (looked up): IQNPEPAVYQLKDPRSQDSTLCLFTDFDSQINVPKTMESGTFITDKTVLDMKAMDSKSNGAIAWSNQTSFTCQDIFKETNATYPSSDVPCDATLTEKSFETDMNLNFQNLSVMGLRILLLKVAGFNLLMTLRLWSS
Assay: immunohistochemistry on FFPE section of mouse spleen
Procedure: The candidate antibodies were screened for their utility in immunohistochemistry. Specimens were sectioned at 4 micron thickness, mounted onto positive-charged glass slides, dried, baked, deparaffinized, and rehydrated. Following rehydration, tissue sections were incubated in Envision Peroxidase (Dako) for 5 minutes to quench endogenous peroxidase. Sections underwent heat-induced epitope retrieval using high-pH buffer for 40 minutes in a water bath set to 95° C. followed by a rinse in neutral buffer. Slides were incubated with antibody or negative reagent control diluted in diluent for 30 minutes. Slides were then rinsed twice in buffer for 5 minutes each followed by detection using the Envision+Rabbit HRP Detection Kit (Dako) for 30 minutes. Slides were rinsed twice with buffer for 5 minutes each followed by incubation with DAB (Dako) for 5 minutes. Slides were rinsed with water, counterstained with hematoxylin, blued in ammonia water, dehydrated through graded alcohols, cleared in xylene, and coverslipped. As shown in FIGS. 5A-E, E7 TCR-transduced, Peripheral blood mononuclear cells (PBMCs) transduced with the MAGE A3/A6 TCR, and FFPE section of mouse spleen stain with the exemplary mAb clone 39 (KIP-8) antibody described herein. […] Normal mouse spleen sections stain with KIP-8 further indicating its specificity for the murine alpha constant sequence.

B1: KIP-8 antibody (mAb clone 39; Clone 39-4) (antibody, V domains shown)
VH: QEQLVESGGGLVQPEGSLTLTCTASGFDLGNNWIHWVRHAPGKGLEWIACVSGSSGNIYYATWAKGRFTMSKASSTTVTLRMTSLTAADTATYFCARGWNLWGPGTLVTVSS
VL: AQVLTQTPASVSAAVGGTVTINCQASQSVYSSNLLTWYQKKPGQPPKLLIYEASKLPSGIPSRFSGSGSGTQFTLTISDVQCADAATYYCLGIYDCVLADCQAFGGGTEVVVKG
notes: Rabbit monoclonal antibody; also called clone 39 (KIP-8); Clone 39-4 vh1
B1: binds.
